# Data: patent publication US11723946B2, “Methods for regulating transcription of multiple genes and expression of multiple targets” (CHINA MEDICAL UNIVERSITY, priority 2014, dated 2023)
# Where two headings read alike, the source gives them in different places.
# B1: present polypeptide: polypeptide comprising the amino acid sequence of SEQ ID No. 1; made by peptide synthesis, recombinant expression or extraction from Momordica charantia (peptide, listed as Artificial synthsis)
# chain: SRCQGKSSWPQLVGSTGAAAKAWIERENPRVRAVIIKVGSGATKDFRCDRVRVWVTERGIVARPPTIG
# Legend:
# [1] = Survival, diabetes incidence and retinopathy in NOD mice; format: in vivo; conditions: 20 weeks; for Incidence of diabetes, mice/mice: control 2/6; for Diabetes-induced retinopathy, mice/mice: control 3/6; for Survival rate, mice/mice: control 4/6
# Description: 23 mice were divided into four groups with different administrations for 20 weeks, wherein 6 mice of the group 1 were control mice that were daily orally administrated with 20 μl of PBS. 6 mice of the group 2 were daily orally administrated with 20 μl of 0.01 umol/kg solution that contained the present polypeptide comprising the amino acid sequence of SEQ ID No. 1. 6 mice of the group 3 were daily orally administered with 20 μl of 0.1 umol/kg solution that contained the present polypeptide comprising the amino acid sequence of SEQ ID No. 1. 5 mice of the group 4 were daily orally administrated with 20 μl of 1 umol/kg solution that contained the present polypeptide comprising the amino acid sequence of SEQ ID No. 1.
# During the administration period, the survival rate, incidence of diabetes and diabetes-induced retinopathy in the each group were measured and shown in table 5. After the administration, the blood samples were collected for serological and biochemical analysis.
# NF-κB = experiment: Ex vivo bioluminescent imaging of organs, LPS-induced NF-κB/luc transgenic mice; format: in vivo
# Description: The mice of the three groups manipulated in example 3 were abdominally injected with 150 mg/Kg luciferin. After luciferin injection for 5 minutes, the mice were sacrificed and the tissues including brain, heart, lung, liver, spleen, stomach, kidney, ovary and intestine were rapidly removed. The collected tissues were placed in the IVIS Imaging System-200 Series (Xenogen, Hopkinton, Mass.) and imaged with the same setting used for in vivo bioluminescent imaging.
# In the table 2, the average of luciferin value in the mice of the group 2 was divided to average of luciferin value in the mice of the group 1 to obtain the fold change. In table 3, the average of luciferin value in the mice of the group 3 was divided to the average of luciferin value in the mice of the group 2 to obtain the fold change.
# [2] = Muscle histology (H&E) in genetic deficient mice; format: in vivo; conditions: 2.5 nmol/kg peritoneal twice a week, 4 weeks; vs control mice
# Description: Collecting the muscles from the mice of the both groups stated in example 5. The collected muscles were for histological examination. In the histology examination, the cell number and cellular size of the muscular tissue were examined by H&E staining and microscopy observation.
# [3] = tested on: Column (IL-1β and TNF signaling pathway genes); conditions: Down-regulated, 2.5 mmol/kg daily, 7 days
# Description: (§1) The wild-type FVB mice were divided into the control group and the experimental group, wherein the mice in the experimental group were daily administered with 20 μl peptide-containing solution that contains 2.5 mmol/kg of the present peptide for 7 days. Moreover, the mice in the control group were daily administrated with 20 μl PBS solution for 7 days.
# (§2) After the daily administration, the tissues of column, muscle, fat pad, liver and kidney were collected for analyzing the expression of multiple targets by system biology analysis. Herein, the altered expressions of the targets in the genome were determined by using DNA microarray which is a well-established tool for systematic biology analysis. Furthermore, the results of the DNA microarray were further categorized and analyzed by bioinformatics analysis to determine the effect and affected signaling pathways of the present polypeptide. Therefore, it can determine the downstream targets of the present polypeptide comprising the amino acid sequence of SEQ ID No. 1 by the mechanism investigation through microarray analysis and gene expression profile. The detail steps including:
# (§3) (1) RNA preparation: The total RNA was extracted from the tissue by using RNeasy Mini Kit (Qiagen, Valencia, Calif., USA). The amount of the extracted total RNA was measured by Beckman DU800 spectrophotometer (Beckman Coulter, Fullerton, Calif., USA). In the next step, the quality of the RNA sample with A260/A280 ratio more than 1.8 was further evaluated by Agilent 2100 bioanalyzer (Agilent Technologies, Santa Clara, Calif., USA). When with the RNA integrity number of the sample is more than 8.0, it would be analyzed by the following microarray analysis.
# (§4) (2) DNA microarray analysis: The procedure of DNA microarray analysis was conducted according to the reference (Cheng, 2007). Briefly, 5 μg of total RNA was amplified by in vitro transcription using MessageAmp™ aRNA kit (Ambion). In the following, the fluorescence dye, Cy5, was chemically labeled on the amplified RNA (aRNA). After the labeling, the fluorescence labeled aRNA was hybridized with Whole Genome OneArray™ in hybridization buffer (Phalanx Biotech Group, Taiwan) on cover slide. Following the hybridization reaction at 50° C. over-night, the non-specific binding on the chip was washed by three washing steps. The washed chip was dried by centrifugation and was scanned by Axon 4000 scanner (Molecular Devices, Sunnyvale, Calif., USA) to measure the fluorescence signals. The fluorescence intensity of Cy5 on each spots was further analyzed by genepix 4.1 (Molecular Devices). First, the signals of each spot were adjusted by deducting the intensity of background. In the next step, the spots including the probes of internal controls or the spots with the signal-to-noise ratios less than […] would be removed. The qualified spots were normalized by limma package which is belonged to R console (Smyth, 2005).
# (§5) (3). Analysis of the functional mechanism and affected signaling pathways by using bioinformatics software: The altered downstream targets, functional mechanisms, affected signaling pathways and the disease relevance were investigated by using the bioinformatics software such as Medical Subject Headings (MeSH, http://www.nlm.nih.gov/mesh/meshhome.html) and BiblioSphere Pathway Edition.
# [4] = tested on: Kidney (Diabetes; Nephrosis genes); conditions: Down-regulated, 2.5 mmol/kg daily, 7 days
# Description: as §1, §2, §3, §4, §5
# [5] = tested on: Liver (Fatty liver genes); conditions: Down-regulated, 2.5 mmol/kg daily, 7 days
# Description: as §1, §2, §3, §4, §5
# [6] = Group 2: 0.01 umol/kg daily oral
# [7] = Group 3: 0.1 umol/kg daily oral
# [8] = group 3 (LPS + 0.5 mg/Kg polypeptide IP) vs group 2 (LPS), down-regulation
# [9] = group 3 (LPS + 0.5 mg/Kg polypeptide IP) vs group 2 (LPS), up-regulation
molecule,measurement,setting,value
B1,"Incidence of diabetes, mice/mice",[1]; [6],0/6
same,"Diabetes-induced retinopathy, mice/mice",[1]; [6],0/6
same,"Survival rate, mice/mice",[1]; [6],6/6
same,"Incidence of diabetes, mice/mice",[1]; [7],0/6
same,"Diabetes-induced retinopathy, mice/mice",[1]; [7],1/6
same,"Survival rate, mice/mice",[1]; [7],6/6
same,"Incidence of diabetes, mice/mice",[1]; Group 4: 1 umol/kg daily oral,1/5
same,"Diabetes-induced retinopathy, mice/mice",[1]; Group 4: 1 umol/kg daily oral,1/5
same,"Survival rate, mice/mice",[1]; Group 4: 1 umol/kg daily oral,5/5
same,"luminescent intensities detected from lung, liver, kidney and intestine",NF-κB; experimental group (group 3) compared with control group (group 2),obviously decreased
same,"Fold change of the luciferin value, Intestine",NF-κB; [8],1.96
same,"Fold change of the luciferin value, Kidney",NF-κB; [8],1.08
same,"Fold change of the luciferin value, Liver",NF-κB; [8],1.57
same,"Fold change of the luciferin value, Lung",NF-κB; [8],1.68
same,"Fold change of the luciferin value, Brain",NF-κB; [9],1.40
same,"Fold change of the luciferin value, Heart",NF-κB; [9],1.13
same,"Fold change of the luciferin value, Ovary",NF-κB; [9],1.17
same,"Fold change of the luciferin value, Spleen",NF-κB; [9],1.08
same,"Fold change of the luciferin value, Stomach",NF-κB; [9],1.11
same,muscular dystrophy (H&E histology of muscle),[2],improved the muscular dystrophy
same,"Fold, Ccl2",[3]; IL-1β signaling pathway,1.71 folds
same,"Fold, Cdh2",[3]; IL-1β signaling pathway,1.73 folds
same,"Fold, Icam1",[3]; IL-1β signaling pathway,2.27 folds
same,"Fold, Pecam1",[3]; IL-1β signaling pathway,1.99 folds
same,"Fold, Tnfrsf11b",[3]; IL-1β signaling pathway,2.74 folds
same,"Fold, ADIPOQ",[3]; TNF signaling pathway,1.78 folds
same,"Fold, Bcl3",[3]; TNF signaling pathway,1.72 folds
same,"Fold, CD40",[3]; TNF signaling pathway,1.79 folds
same,"Fold, Casp3",[3]; TNF signaling pathway,1.71 folds
same,"Fold, Ikbke",[3]; TNF signaling pathway,1.95 folds
same,"Fold, Irs1",[3]; TNF signaling pathway,1.73 folds
same,"Fold, Ltf",[3]; TNF signaling pathway,1.99 folds
same,"Fold, Mapk3",[3]; TNF signaling pathway,2.32 folds
same,"Fold, Mapk9",[3]; TNF signaling pathway,1.53 folds
same,"Fold, Rxra",[3]; TNF signaling pathway,1.89 folds
same,"Fold, Socs1",[3]; TNF signaling pathway,2.46 folds
same,"Fold, Tnfrsf11b",[3]; TNF signaling pathway,2.74 folds
same,"Fold, Apoc3",[4],2.5 folds
same,"Fold, Ctla4",[4],1.65 folds
same,"Fold, Fabp2",[4],1.62 folds
same,"Fold, Fgb",[4],1.91 folds
same,"Fold, Hp",[4],2.35 folds
same,"Fold, Aldh2",[5],2.5 folds
same,"Fold, Ctla4",[5],1.56 folds
same,"Fold, Cyp17a1",[5],1.52 folds
same,"Fold, Mmp2",[5],2.11 folds
same,"Fold, Mttp",[5],3.53 folds
same,"Fold, Sod2",[5],1.71 folds
